Values quoted from earlier work as cited in patent publication US20040063697A1, “Compositions of cyclooxygenase-2 selective inhibitors and thrombolytic agents for the treatment or prevention of a vaso-occlusive event” (priority 2002, published 2004).

Key:
[1] = for Elimination / Half-Life: in vivo
[2] = molecular target: plasminogen (Homo sapiens, UniProt P00747)
[3] = for Antigenicity: in vivo; for immune response: when administered to a human
[4] = system: coronary intimal proliferation; settings: oral administration, swine model of restenosis
[5] = system: minimal lumen diameter; settings: single dose intravenous pretreatment before coronary stenting, at 6 months
[6] = system: restenosis; settings: orally administered, stent implanted pig arteries
[7] = system: vascular smooth muscle cells; settings: in vitro

Chain of plasminogen (P00747 20-810 limits assumed): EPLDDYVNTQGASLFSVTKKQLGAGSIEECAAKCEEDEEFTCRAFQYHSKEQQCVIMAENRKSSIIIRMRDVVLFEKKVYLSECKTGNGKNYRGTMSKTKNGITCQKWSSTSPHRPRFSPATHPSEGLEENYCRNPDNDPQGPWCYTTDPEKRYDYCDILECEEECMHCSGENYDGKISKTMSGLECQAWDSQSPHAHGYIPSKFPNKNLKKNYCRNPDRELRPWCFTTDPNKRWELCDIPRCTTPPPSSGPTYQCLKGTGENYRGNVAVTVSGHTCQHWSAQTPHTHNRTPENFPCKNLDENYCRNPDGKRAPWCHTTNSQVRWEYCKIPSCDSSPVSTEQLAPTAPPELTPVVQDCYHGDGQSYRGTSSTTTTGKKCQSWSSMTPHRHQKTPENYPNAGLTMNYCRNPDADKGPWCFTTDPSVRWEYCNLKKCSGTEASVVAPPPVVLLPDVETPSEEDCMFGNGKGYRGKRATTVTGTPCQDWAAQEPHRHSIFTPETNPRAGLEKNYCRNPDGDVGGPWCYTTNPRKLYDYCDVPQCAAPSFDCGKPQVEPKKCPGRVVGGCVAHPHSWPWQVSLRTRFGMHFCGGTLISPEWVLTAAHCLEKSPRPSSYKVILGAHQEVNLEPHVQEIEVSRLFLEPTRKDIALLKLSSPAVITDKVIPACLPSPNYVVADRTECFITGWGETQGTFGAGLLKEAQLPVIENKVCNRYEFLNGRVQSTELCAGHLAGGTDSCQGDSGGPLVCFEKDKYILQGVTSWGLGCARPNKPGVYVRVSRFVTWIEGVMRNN

| Compound | Elimination [1] | Half-Life [1] | Method of Plasminogen Activation [2] | activation of fibrin-bound plasminogen versus circulating plasminogen [2] | Antigenicity [3] | immune response [3] | further results |
| --- | --- | --- | --- | --- | --- | --- | --- |
| Streptokinase: plasminogen activator produced by beta-hemolytic streptococci | Hepatic | 15 to 25 min | Indirect | activate fibrin-bound plasminogen as well as circulating plasminogen | Yes | induce an immune response |  |
| CN(C)CCCO[C@@H]1[C@H]2OC(C)(C)O[C@H]2O[C@@H]1[C@H](O)CO.Cl [aniprilose hydrochloride] |  |  |  |  |  |  | coronary intimal proliferation [4]: did not prevent |
| C[C@H]1C[C@@H]2[C@H]([C@@H](O)C[C@@]3(C)[C@H]2CC[C@]3(O)C(=O)CO)[C@@]2(C)C=CC(=O)C=C12 [methylpridnisolone] |  |  |  |  |  |  | change in minimal lumen diameter [5]: no effect |
| Urokinase | Hepatic | 15 to 20 min | Direct | activates fibrin-bound plasminogen as well as circulating plasminogen | No | does not elicit an immune response |  |
| COc1ccc(C=CC(=O)Nc2ccccc2C(=O)O)cc1OC [tranilast, N-(3,4-dimethoxycinnamoyl) anthranilic acid] |  |  |  |  |  |  | rate of restenosis [6]: lower rate of restenosis |
| Alteplase: biosynthetic, glycosylated form of human t-PA | Hepatic | 4 to 8 min | Direct |  | No | no immune response is elicited | plasma clearance time and half-life ([1]; in words): rapid plasma clearance time and a short half-life |
| t-PA: tissue plasminogen activators |  |  |  | highly specific for the activation of fibrin-bound plasminogen over circulating plasminogen |  |  |  |
| COc1cc(/C=C/C(=O)CC(=O)/C=C/c2ccc(O)c(OC)c2)ccc1O [curcumin] |  |  |  |  |  |  | proliferation of vascular smooth muscle cells [7]: reduced proliferation |
